According to publication PMC10397247:
Blank lines part the entries; values can stand above or below the binder they belong to.

Tests used:
[1] = target: T1, Core_NNIN-es_KEEK; assay: two-hybrid library CCmax; details: mean of both orientations;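 also: natural log of median RNA to DNA barcode read ratio; higher means stronger binding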
T1 chain: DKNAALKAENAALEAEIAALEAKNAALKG

[2] = target: T2, Core_NNNI-es_KEEE; assay: two-hybrid library CCmax; details: mean of both orientations;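 also: natural log of median RNA to DNA barcode read ratio; higher means stronger binding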
T2 chain: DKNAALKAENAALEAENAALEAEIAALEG

[3] = target: T3, 4H2883-bA; assay: two-hybrid library CCNG1;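 also: natural log of median RNA to DNA barcode read ratio; higher means stronger binding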
T3 chain: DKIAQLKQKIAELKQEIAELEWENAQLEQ

[4] = target: T4, 4H2944-bA; assay: two-hybrid library CCNG1;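 also: natural log of median RNA to DNA barcode read ratio; higher means stronger binding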
T4 chain: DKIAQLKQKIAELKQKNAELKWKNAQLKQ

[5] = target: T5, 4H19-bA; assay: two-hybrid library CCNG1;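 also: natural log of median RNA to DNA barcode read ratio; higher means stronger binding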
T5 chain: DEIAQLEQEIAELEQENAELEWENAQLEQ

[6] = target: T6, 4H2696-bA; assay: two-hybrid library CCNG1;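 also: natural log of median RNA to DNA barcode read ratio; higher means stronger binding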
T6 chain: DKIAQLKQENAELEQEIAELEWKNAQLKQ

[7] = target: T7, 4H48-bA; assay: two-hybrid library CCNG1
T7 chain: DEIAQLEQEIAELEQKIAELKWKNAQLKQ

[8] = target: T8, 4H2937-bA; assay: two-hybrid library CCNG1
T8 chain: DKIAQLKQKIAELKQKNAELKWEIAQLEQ

[9] = target: T9, 4H491-bA; assay: two-hybrid library CCNG1
T9 chain: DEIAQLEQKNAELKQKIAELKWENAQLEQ

[10] = target: T10, 4H342-bA; assay: two-hybrid library CCNG1
T10 chain: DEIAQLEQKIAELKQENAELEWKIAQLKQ

[11] = target: T11, 4H2935-AA; assay: two-hybrid library CCmax; details: mean of both orientations
T11 chain: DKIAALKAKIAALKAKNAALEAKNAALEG

[12] = target: T12, 4H3922-AA; assay: two-hybrid library CCmax; details: mean of both orientations
T12 chain: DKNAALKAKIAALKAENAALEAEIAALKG

[13] = target: T13, 4H4033-AA; assay: two-hybrid library CCmax; details: mean of both orientations
T13 chain: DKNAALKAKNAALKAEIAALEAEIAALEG

[14] = target: T14, 4H2726-AA; assay: two-hybrid library CCmax; details: mean of both orientations
T14 chain: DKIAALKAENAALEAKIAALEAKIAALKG

[15] = target: T15, 4H327-AA; assay: two-hybrid library CCmax; details: mean of both orientations
T15 chain: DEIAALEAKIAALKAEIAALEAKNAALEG

[16] = target: T16, 4H2608-AA; assay: two-hybrid library CCmax
T16 chain: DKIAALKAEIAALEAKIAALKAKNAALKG

[17] = target: T17, 4H3625-AA; assay: two-hybrid library CCmax; details: mean of both orientations
T17 chain: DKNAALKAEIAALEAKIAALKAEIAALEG

[18] = target: T18, Core_IIIN-es_EKEE; assay: two-hybrid library CCmax; details: mean of both orientations
T18 chain: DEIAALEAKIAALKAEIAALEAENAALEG

[19] = target: T19, 4H3664-AA; assay: two-hybrid library CCmax; details: mean of both orientations
T19 chain: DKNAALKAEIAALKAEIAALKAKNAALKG

[20] = target: T20, 4H2614-AA; assay: two-hybrid library CCmax; details: mean of both orientations
T20 chain: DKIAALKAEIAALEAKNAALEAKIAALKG

[21] = target: T21, 4H662-AA; assay: two-hybrid library CCmax; details: mean of both orientations
T21 chain: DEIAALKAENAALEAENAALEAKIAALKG

[22] = target: T22, 4H481-AA; assay: two-hybrid library CCmax; details: mean of both orientations
T22 chain: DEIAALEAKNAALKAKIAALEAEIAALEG

[23] = target: T23, 4H55-AA; assay: two-hybrid library CCmax; details: mean of both orientations
T23 chain: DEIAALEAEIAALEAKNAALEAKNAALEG

[24] = target: T24, 4H369-AA; assay: two-hybrid library CCmax
T24 chain: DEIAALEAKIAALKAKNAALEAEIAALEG

[25] = target: T25, 4H3605-AA; assay: two-hybrid library CCmax; details: mean of both orientations
T25 chain: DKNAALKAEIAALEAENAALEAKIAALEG

[26] = target: T26, Core_NNNN-es_KEKK; assay: two-hybrid library CCmax; details: mean of both orientations
T26 chain: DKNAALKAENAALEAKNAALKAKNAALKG

[27] = target: T27, P2-AA; assay: two-hybrid library CCmax; details: mean of both orientations
T27 chain: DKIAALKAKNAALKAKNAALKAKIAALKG

[28] = target: T28, P2-AA-1HGe-M; assay: two-hybrid library CCmax; details: mean of both orientations
T28 chain: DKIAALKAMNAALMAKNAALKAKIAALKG

[29] = target: T29, P2-AA-1HGe-S; assay: two-hybrid library CCmax; details: mean of both orientations
T29 chain: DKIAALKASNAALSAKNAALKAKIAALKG

[30] = target: T30, P2-AA-1HGe-D; assay: two-hybrid library CCmax; details: mean of both orientations
T30 chain: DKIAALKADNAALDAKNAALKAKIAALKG

[31] = target: T31, P2-AA-1HGe-A; assay: two-hybrid library CCmax; details: mean of both orientations
T31 chain: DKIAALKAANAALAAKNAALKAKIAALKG

[32] = target: T32, P2-AA-1HGe-T; assay: two-hybrid library CCmax; details: mean of both orientations
T32 chain: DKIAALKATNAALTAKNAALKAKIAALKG

[33] = target: T33, P2-AA-1HGe-Q; assay: two-hybrid library CCmax; details: mean of both orientations
T33 chain: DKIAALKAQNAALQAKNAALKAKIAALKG

[34] = target: T34, Core_NINN-es_KKEE; assay: two-hybrid library CCmax; details: mean of both orientations
T34 chain: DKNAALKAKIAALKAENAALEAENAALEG

[35] = target: T35, Core_NNNN-es_KKEK; assay: two-hybrid library CCmax; details: mean of both orientations
T35 chain: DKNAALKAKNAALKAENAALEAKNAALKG

[36] = target: T36, Core_IINN-es_KKEK; assay: two-hybrid library CCmax; details: mean of both orientations
T36 chain: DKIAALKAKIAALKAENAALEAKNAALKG

[37] = target: T37, O3; assay: two-hybrid library CC0; details: mean of both orientations
T37 chain: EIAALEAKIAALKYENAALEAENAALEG

[38] = target: T38, O14; assay: two-hybrid library CC0; details: mean of both orientations
T38 chain: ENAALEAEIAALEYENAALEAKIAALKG

[39] = target: T39, O5; assay: two-hybrid library CC0; details: mean of both orientations
T39 chain: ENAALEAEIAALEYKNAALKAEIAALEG

[40] = target: T40, O6; assay: two-hybrid library CC0; details: mean of both orientations
T40 chain: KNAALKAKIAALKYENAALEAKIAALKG

[41] = target: T41, O2; assay: two-hybrid library CC0; details: mean of both orientations
T41 chain: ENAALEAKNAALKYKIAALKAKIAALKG

[42] = target: T42, O9; assay: two-hybrid library CC0; details: mean of both orientations
T42 chain: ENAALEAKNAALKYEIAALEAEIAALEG

[43] = target: T43, O16; assay: two-hybrid library CC0; details: mean of both orientations
T43 chain: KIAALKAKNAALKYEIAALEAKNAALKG

[44] = target: T44, O8; assay: two-hybrid library CC0; details: mean of both orientations
T44 chain: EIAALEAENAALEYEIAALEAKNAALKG

[45] = target: T45, O4; assay: two-hybrid library CC0; details: mean of both orientations
T45 chain: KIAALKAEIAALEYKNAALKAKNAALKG

[46] = target: T46, O11; assay: two-hybrid library CC0; details: mean of both orientations
T46 chain: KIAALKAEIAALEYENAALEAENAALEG

[47] = target: T47, O15; assay: two-hybrid library CC0; details: mean of both orientations
T47 chain: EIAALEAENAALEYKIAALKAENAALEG

[48] = target: T48, O1; assay: two-hybrid library CC0; details: mean of both orientations
T48 chain: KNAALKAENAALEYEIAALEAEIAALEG

[49] = target: T49, O12; assay: two-hybrid library CC0; details: mean of both orientations
T49 chain: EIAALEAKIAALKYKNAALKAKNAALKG

[50] = target: T50, O10; assay: two-hybrid library CC0; details: mean of both orientations
T50 chain: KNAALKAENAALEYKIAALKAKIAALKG

[51] = target: T51, O7; assay: two-hybrid library CC0; details: mean of both orientations
T51 chain: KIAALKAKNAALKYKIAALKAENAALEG

[52] = target: T52, O13; assay: two-hybrid library CC0; details: mean of both orientations
T52 chain: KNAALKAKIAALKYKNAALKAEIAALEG

[53] = target: T53, Core_NNNI-es_KEKK; assay: two-hybrid library CCmax; details: mean of both orientations
T53 chain: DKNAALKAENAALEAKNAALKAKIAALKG

[54] = target: T54, Core_NINN-es_KEEK; assay: two-hybrid library CCmax; details: mean of both orientations
T54 chain: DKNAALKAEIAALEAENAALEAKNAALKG

[55] = target: T55, Core_NIIN-es_KEEK; assay: two-hybrid library CCmax; details: mean of both orientations
T55 chain: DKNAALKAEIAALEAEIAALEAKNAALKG

[56] = target: T56, P6SC2R; assay: two-hybrid library CCmax
T56 chain: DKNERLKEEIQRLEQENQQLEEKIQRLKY

[57] = target: T56, P6SC2R; assay: two-hybrid library CCNG1

Binder: DEIAQLEQEIAELEQENAELEWENAQLEQ [4H19-bA]
interaction score [3]: -0.0858
interaction score [4]: 2.54
interaction score [5]: -0.446
interaction score [6]: -1.13
interaction score [7]: -0.828
interaction score [8]: 1.86
interaction score [9]: -1.22
interaction score [10]: -0.577

Binder: DKIAALKAEIAALEAKIAALKAKNAALKG [4H2608-AA]
interaction score [11]: -0.712
interaction score [12]: -1.39
interaction score [13]: -0.845
interaction score [14]: -0.998
interaction score [15]: 1.83
interaction score [16]: -0.193
interaction score [17]: 1.92
interaction score [18]: 1.53
interaction score [19]: -0.787
interaction score [20]: -0.644
interaction score [21]: -1.55
interaction score [22]: 1.33
interaction score [23]: -0.255
interaction score [24]: 0.124
interaction score [25]: -0.648

Binder: DEIAALEAANAALAAENAALEAEIAALEG [P1-AA-1HGe-A]
interaction score [27]: 1.57
interaction score [28]: 2.12
interaction score [29]: 2.24
interaction score [30]: 1.82
interaction score [31]: 1.85
interaction score [32]: 1.54
interaction score [33]: 1.88

Binder: DEIAALEAEIAALEAKNAALKAENAALEG [Core_IINN-es_EEKE]
interaction score [36]: 2.21

Binder: KNAALKAENAALEYEIAALEAEIAALEG [O1]
interaction score [37]: -2.76
interaction score [38]: -2.71
interaction score [39]: -2.77
interaction score [40]: -2.76
interaction score [41]: 1.37
interaction score [42]: -2.49
interaction score [43]: -2.65
interaction score [44]: -2.67
interaction score [45]: -2.68
interaction score [46]: -2.7
interaction score [47]: -2.7
interaction score [48]: -2.74
interaction score [49]: -2.64
interaction score [50]: -0.97
interaction score [51]: -2.69
interaction score [52]: -2.57

Binder: DENSQLEEKISQLKQKNSRLKEEIQRLEY [P5SC1Q]
interaction score [56]: 1.06
interaction score [57]: 1.2

Next, values leading:

interaction score [1]: 1.39
Binder: DENAALEAKNAALKAKIAALKAENAALEG [Core_NNIN-es_EKKE]

interaction score [2]: 1.91
Binder: DENAALEAKNAALKAKNAALKAKIAALKG [Core_NNNI-es_EKKK]

interaction score [26]: 0.346
Binder: DENAALEAKNAALKAENAALEAENAALEG [Core_NNNN-es_EKEE]

interaction score [34]: 1.6
Binder: DENAALEAEIAALEAKNAALKAKNAALKG [Core_NINN-es_EEKK]

interaction score [35]: 0.00657
Binder: DENAALEAENAALEAKNAALKAENAALEG [Core_NNNN-es_EEKE]

interaction score [53]: 2.11
Binder: DENAALEAKNAALKAENAALEAEIAALEG [Core_NNNI-es_EKEE]

interaction score [54]: 1.86
Binder: DENAALEAKIAALKAKNAALKAENAALEG [Core_NINN-es_EKKE]

interaction score [55]: 2.22
Binder: DENAALEAKIAALKAKIAALKAENAALEG [Core_NIIN-es_EKKE]
